{
  "source": "paper PMC3326527",
  "about": "(Journal of molecular biology, 2005)",
  "proteins": {"B1": {"name": "UDP-galactopyranose mutase from Mycobacterium tuberculosis (enzyme)", "chain": "MQPMTARFDLFVVGSGFFGLTIAERVATQLDKRVLVLERRPHIGGNAYSEAEPQTGIEVHKYGAHLFHTSNKRVWDYVRQFTDFTDYRHRVFAMHNGQAYQFPMGLGLVSQFFGKYFTPEQARQLIAEQAAEIDTADAQNLEEKAISLIGRPLYEAFVKGYTAKQWQTDPKELPAANITRLPVRYTFDNRYFSDTYEGLPTDGYTAWLQNMAADHRIEVRLNTDWFDVRGQLRPGSPAAPVVYTGPLDRYFDYAEGRLGWRTLDFEVEVLPIGDFQGTAVMNYNDLDVPYTRIHEFRHFHPERDYPTDKTVIMREYSRFAEDDDEPYYPINTEADRALLATYRARAKSETASSKVLFGGRLGTYQYLDMHMAIASALNMYDNVLAPHLRDGVPLLQDGA"}},
  "molecular_target": "the molecule itself",
  "experiment": "crystal structure",
  "data": [
    {"protein": "B1", "values": [
      {"measurement": "binding result", "value": "binds"}
    ]}
  ]
}
